Biological target: the molecule itself
Assay: SEC; gel filtration of the purified tag-free proteins; elution volumes corresponding to approximately 20 kDa; data not shown

Protein | stoichiometry N
C-terminal domain of Phl p 1.0102 (wild-type), GST tag removed (domain or fragment) KVTFHVEKGSNPNYLALLVKYVNGDGDVVAVDIKEKGKDKWIELKESWGAIWRIDTPDKLTGPFTVRYTTEGGTKTEAEDVIPEGWKADTSYESK | 2
IgE-hyporeactive (K8A, N11A, D55A) mutant of the C-terminal domain of Phl p 1.0102, GST tag removed (domain or fragment) KVTFHVEAGSAPNYLALLVKYVNGDGDVVAVDIKEKGKDKWIELKESWGAIWRIATPDKLTGPFTVRYTTEGGTKTEAEDVIPEGWKADTSYESK | 2
